According to US20200277366A1 (UCB, published 2020):

Key:
human TNF-alpha [1] = biological target: T1, human TNF-alpha (human, UniProt P01375 77-233); assay: cell-based or functional assay
cynomolgus TNF-alpha [2] = biological target: T2, cynomolgus TNF-alpha (cynomolgus, UniProt P79337 77-233); assay: cell-based or functional assay
murine TNF-alpha = biological target: T3, murine TNF-alpha (mouse, UniProt P06804 80-235); assay: L929 cell killing assay with murine TNF-α (N=3); told in words
T3 construct: also called mouse TNF; Murine TNF-α
T3 sequence (looked up): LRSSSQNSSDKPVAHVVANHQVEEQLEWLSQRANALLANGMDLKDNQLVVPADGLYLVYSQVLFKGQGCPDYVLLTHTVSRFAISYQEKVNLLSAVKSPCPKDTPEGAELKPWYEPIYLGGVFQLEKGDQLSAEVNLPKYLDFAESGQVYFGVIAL

human serum albumin = biological target: T4, human serum albumin (human, UniProt P02768 25-609); assay: SPR (Biacore T200), TrYbe 18B captured by anti-human F(ab')2, HSA titrated 100 nM to 3.125 nM
T4 construct: also called HSA; Human Albumin
Experimental: (§1) BIA (Biamolecular Interaction Analysis) was performed using a Biacore T200 (GE Healthcare). Affinipure F(ab′)2 Fragment goat anti-human IgG, F(ab′)2 fragment specific (Jackson ImmunoResearch) was immobilised on a CM5 Sensor Chip via amine coupling chemistry to a capture level of ˜5000 response units (RUs). HBS-EP buffer (10 mM HEPES pH 7.4, 0.15 M NaCl, 3 mM EDTA, 0.05% Surfactant P20, GE Healthcare) was used as the running buffer with a flow rate of 10 μL/min. […] The surface was regenerated by 2×10 μL injection of 50 mM HCl, interspersed by a 5 μL injection of 5 mM NaOH at a flowrate of 10 μL/min. Background subtraction binding curves were analysed using the T200evaluation software (version 1.0) following standard procedures. Kinetic parameters were determined from the fitting algorithm.

human TNF-alpha [3] = biological target: T1, human TNF-alpha; assay: SPR (Biacore T200), TrYbe 18B captured by anti-human F(ab')2, human TNF titrated 5 nM to 0.15625 nM
Experimental: as §1

human IL-17A [4] = biological target: T5, human IL-17A (human, UniProt Q16552 24-155); assay: SPR (Biacore T200), TrYbe 18B captured by anti-human F(ab')2, human IL-17A titrated 5 nM to 0.15625 nM
T5 construct: also called hIL-17A
Experimental: as §1

human IL-17F = biological target: T6, human IL-17F (human, UniProt Q96PD4 31-163); assay: SPR (Biacore T200), TrYbe 18B captured by anti-human F(ab')2, human IL-17F titrated 10 nM to 0.3125 nM
T6 sequence (looked up): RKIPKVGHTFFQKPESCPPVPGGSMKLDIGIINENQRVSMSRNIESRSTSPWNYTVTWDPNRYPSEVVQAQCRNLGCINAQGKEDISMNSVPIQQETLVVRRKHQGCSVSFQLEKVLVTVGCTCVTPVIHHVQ
Experimental: as §1

cynomolgus TNF-alpha [5] = biological target: T2, cynomolgus TNF-alpha; assay: SPR (Biacore T200), TrYbe 18B captured by anti-human F(ab')2, cynomolgus TNF titrated 5 nM to 0.15625 nM
Experimental: as §1, with “of […]. Background subtraction” for “of 10 μL/min. Background subtraction”

cynomolgus IL-17F [6] = biological target: T7, cynomolgus IL-17F (cynomolgus, UniProt G7P4V0 31-163); assay: SPR (Biacore T200), TrYbe 18B captured by anti-human F(ab')2, cynomolgus IL-17F titrated 40 nM to 1.25 nM
T7 construct: also called cyno IL-17F
T7 sequence: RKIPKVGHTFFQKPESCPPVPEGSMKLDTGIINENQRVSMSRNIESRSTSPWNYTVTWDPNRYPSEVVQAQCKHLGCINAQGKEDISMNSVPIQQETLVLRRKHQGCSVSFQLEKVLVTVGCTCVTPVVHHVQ
Experimental: as §1, with “of […]. Background subtraction” for “of 10 μL/min. Background subtraction”

cynomolgus IL-17A [7] = biological target: T8, cynomolgus IL-17A (cynomolgus, UniProt A0A2K5TTB0 24-155); assay: SPR (Biacore T200), TrYbe 18B captured by anti-human F(ab')2, cynomolgus IL-17A titrated 10 nM to 0.3125 nM
T8 construct: also called cIL-17A; cynoIL-17A
Experimental: as §1, with “of […]. Background subtraction” for “of 10 μL/min. Background subtraction”

cynomolgus serum albumin [8] = biological target: T9, cynomolgus serum albumin (cynomolgus, UniProt A2V9Z4 25-608); assay: SPR (Biacore T200), TrYbe 18B captured by anti-human F(ab')2, cynomolgus albumin titrated 100 nM to 3.125 nM
T9 construct: also called Cynomolgus Albumin; CSA
Experimental: as §1, with “of […]. Background subtraction” for “of 10 μL/min. Background subtraction”

cynomolgus IL-17F [9] = biological target: T7, cynomolgus IL-17F; assay: SPR (Biacore T200), TrYbe 18B captured; column head prints KD(nM), but the KD(M) column shows the value is in pM
Experimental: as §1, with “of […]. Background subtraction” for “of 10 μL/min. Background subtraction”

cynomolgus serum albumin [10] = biological target: T9, cynomolgus serum albumin; assay: as above
Experimental: as §1, with “of […]. Background subtraction” for “of 10 μL/min. Background subtraction”

cynomolgus TNF-alpha [11] = biological target: T2, cynomolgus TNF-alpha; assay: as above
Experimental: as §1, with “of […]. Background subtraction” for “of 10 μL/min. Background subtraction”

human IL-17A [12] = biological target: T5, human IL-17A; assay: SPR (Biacore T200), TrYbe 18B captured by anti-human F(ab')2, human IL-17A titrated 5 nM to 0.15625 nM; kd at the instrument's limit
Experimental: as §1

cynomolgus IL-17A [13] = biological target: T8, cynomolgus IL-17A; assay: SPR (Biacore T200), TrYbe 18B captured by anti-human F(ab')2, cynomolgus IL-17A titrated 10 nM to 0.3125 nM; kd at the instrument's limit
Experimental: as §1, with “of […]. Background subtraction” for “of 10 μL/min. Background subtraction”

cynomolgus IL-17A [14] = biological target: T8, cynomolgus IL-17A; assay: SPR (Biacore T200), TrYbe 18B captured; column head prints KD(nM), but the KD(M) column shows the value is in pM; kd at the instrument's limit
Experimental: as §1, with “of […]. Background subtraction” for “of 10 μL/min. Background subtraction”

human IL-17A [15] = biological target: T5, human IL-17A; assay: SPR (Biacore T200), TrYbe 18B captured by anti-human F(ab')2, human IL-17A titrated 5 nM to 0.15625 nM; footnote: dissociation limited due to limit of the instrument
Experimental: as §1

cynomolgus IL-17A [16] = biological target: T8, cynomolgus IL-17A; assay: SPR (Biacore T200), TrYbe 18B captured by anti-human F(ab')2, cynomolgus IL-17A titrated 10 nM to 0.3125 nM; footnote: dissociation limited due to limit of the instrument
Experimental: as §1, with “of […]. Background subtraction” for “of 10 μL/min. Background subtraction”

B1: Fab496.g3-(HC)dsscFv(HL)2109 / Fab496.g3-(LC)dsscFv(HL)645 (TrYbe 18B) (other)
heavy: EVQLVESGGGLVQPGGSLRLSCAASGFTFSDYNMAWVRQAPGKGLEWVATITYEGRNTYYRDSVKGRFTISRDNAKNSLYLQMNSLRAEDTAVYYCASPPQYYEGSIYRLWFAHWGQGTLVTVSSASTKGPSVFPLAPSSKSTSGGTAALGCLVKDYFPEPVTVSWNSGALTSGVHTFPAVLQSSGLYSLSSVVTVPSSSLGTQTYICNVNHKPSNTKVDKKVEPKSCSGGGGSGGGGSEVQLVESGGGLVKPGGSLRLSCAASGYTFTDNYIHWVRQAPGKCLEWIGYINPSSAYAHYNEKFKTRFTISVDKAKNSAYLQMNSLRAEDTAVYYCTRRYYSAMPFAYWGQGTLVTVSSGGGGSGGGGSGGGGSGGGGSDIQMTQSPSSLSASVGDRVTITCRASEDIYSGLAWYQQKPGKVPKLLIYDSSTLHTGVPSRFSGTGSGTDYTLTISSLQPEDVATYFCQQNYDFPLTFGCGTKLEIKRT
light: AIQLTQSPSSLSASVGDRVTITCRADESVRTLMHWYQQKPGKAPKLLIYLVSNSEIGVPDRFSGSGSGTDFRLTISSLQPEDFATYYCQQTWSDPWTFGQGTKVEIKRTVAAPSVFIFPPSDEQLKSGTASVVCLLNNFYPREAKVQWKVDNALQSGNSQESVTEQDSKDSTYSLSSTLTLSKADYEKHKVYACEVTHQGLSSPVTKSFNRGECSGGGGSGGGGSEVQLLESGGGLVQPGGSLRLSCAVSGIDLSNYAINWVRQAPGKCLEWIGIIWASGTTFYATWAKGRFTISRDNSKNTVYLQMNSLRAEDTAVYYCARTVPGYSTAPYFDLWGQGTLVTVSSGGGGSGGGGSGGGGSGGGGSDIQMTQSPSSVSASVGDRVTITCQSSPSVWSNFLSWYQQKPGKAPKLLIYEASKLTSGVPSRFSGSGSGTDFTLTISSLQPEDFATYYCGGGYSSISDTTFGCGTKVEIKRT
notes: Tri-specific Fab-2xdsscFv (TrYbe) with no Fc; Stably expressed in CHO; also called Fab496.g3-(HC)dsHLscFv2109 (LC)dsHLscFv645
- Mean EC50, L929 cell survival (CellTiter-Glo) with Actinomycin D and human TNF-α (human TNF-alpha [1]): 5.87 pM
- Mean EC50, L929 cell survival (CellTiter-Glo) with Actinomycin D and cynomolgus TNF-α (cynomolgus TNF-alpha [2]): 4.97 pM
- binding result (murine TNF-alpha): no binding
- Kd (human serum albumin): 1740 pM
- koff (human serum albumin): 0.000135 s⁻¹
- kon (human serum albumin): 77500 M⁻¹ s⁻¹
- Kd (human TNF-alpha [3]): 11.6 pM
- koff (human TNF-alpha [3]): 6.43e-05 s⁻¹
- kon (human TNF-alpha [3]): 5.54e+06 M⁻¹ s⁻¹
- kon (human IL-17A [4]): 5.52e+06 M⁻¹ s⁻¹
- Kd (human IL-17F): 7.51 pM
- koff (human IL-17F): 3.8e-05 s⁻¹
- kon (human IL-17F): 5.06e+06 M⁻¹ s⁻¹
- Kd (cynomolgus TNF-alpha [5]): 7.16 pM
- koff (cynomolgus TNF-alpha [5]): 6.38e-05 s⁻¹
- kon (cynomolgus TNF-alpha [5]): 8.9e+06 M⁻¹ s⁻¹
- Kd (cynomolgus IL-17F [6]): 288 pM
- koff (cynomolgus IL-17F [6]): 0.000167 s⁻¹
- kon (cynomolgus IL-17F [6]): 582000 M⁻¹ s⁻¹
- kon (cynomolgus IL-17A [7]): 1.67e+06 M⁻¹ s⁻¹
- Kd (cynomolgus serum albumin [8]): 2720 pM
- koff (cynomolgus serum albumin [8]): 0.000159 s⁻¹
- kon (cynomolgus serum albumin [8]): 58300 M⁻¹ s⁻¹
- Kd (cynomolgus IL-17F [9]): 288 pM
- Kd (cynomolgus serum albumin [10]): 2720 pM
- Kd (cynomolgus TNF-alpha [11]): 7.16 pM
- Kd (human IL-17A [12]): ≤ 1.81 pM
- Kd (cynomolgus IL-17A [13]): ≤ 5.99 pM
- Kd (cynomolgus IL-17A [14]): 5.99 pM
- koff (human IL-17A [15]): ≤ 1e-05 s⁻¹
- koff (cynomolgus IL-17A [16]): ≤ 1e-05 s⁻¹
